Experimental findings from patent US20150299255A1 are described below.

The target of this experiment is lectin SNA1 from Sambucus nigra (Sambucus nigra), Q41358. The experiment in a line: solid-phase assay, peptide titrated into wells containing bound lectin (FIG. 7).
Chain of lectin SNA1 from Sambucus nigra (Sambucus nigra), Q41358 (Q41358 29-289 limits assumed, chain 1 of 2): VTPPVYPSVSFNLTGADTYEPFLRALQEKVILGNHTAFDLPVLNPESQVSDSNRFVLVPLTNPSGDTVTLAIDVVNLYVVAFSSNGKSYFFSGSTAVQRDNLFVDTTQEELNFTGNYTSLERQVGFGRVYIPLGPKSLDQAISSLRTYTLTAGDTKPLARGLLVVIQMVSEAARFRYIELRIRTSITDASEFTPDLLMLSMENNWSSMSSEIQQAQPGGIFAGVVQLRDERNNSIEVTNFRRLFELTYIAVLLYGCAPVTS
Chain of lectin SNA1 from Sambucus nigra (Sambucus nigra), Q41358 (Q41358 309-570 limits assumed, chain 2 of 2): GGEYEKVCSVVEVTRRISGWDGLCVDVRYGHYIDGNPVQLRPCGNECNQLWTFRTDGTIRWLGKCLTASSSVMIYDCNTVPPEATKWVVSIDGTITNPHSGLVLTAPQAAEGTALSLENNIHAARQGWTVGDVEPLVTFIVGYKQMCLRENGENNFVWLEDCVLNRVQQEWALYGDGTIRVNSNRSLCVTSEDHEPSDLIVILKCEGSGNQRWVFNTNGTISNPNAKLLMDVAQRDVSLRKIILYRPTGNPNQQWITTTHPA

B1: biotinylated quadravalent SVH1C (peptide)
peptide: NPSHPLSGGGGS
chain: KKKK
modifications: not checked
Consider B1, for which the amount of peptide at half-maximal binding (pmoles peptide per well) was found to be 25.
